According to the supplement of paper PMC10567573:

B1: ADAMTS4 (parent)
chain: HVDPEEPWSPCSARFITDFLDNGY

Variants of: B1
Assay: protein stability index of a GFP-peptide fusion (GPS, HEK-293T) (PSI 1-6); higher = more stable
Conditions: c terminus: a fixed tail appended
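Further: lentivirally expressed fusions sorted by FACS into six bins by GFP to DsRed ratio, PSI derived from sequencing read proportions per bin multiplied by bin number.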

| Variant | protein stability index |
| --- | --- |
| HVDPEELWSPCSARFITDFLDNGY [P7L] | 3.65 |
| HVDPEEMWSPCSARFITDFLDNGY [P7M] | 2.23 |
| HVDPEENWSPCSARFITDFLDNGY [P7N] | 1.74 |
| HVDPEEQWSPCSARFITDFLDNGY [P7Q] | 1.72 |
| HVDPEERWSPCSARFITDFLDNGY [P7R] | 2.14 |
| HVDPEESWSPCSARFITDFLDNGY [P7S] | 2.35 |
| HVDPEETWSPCSARFITDFLDNGY [P7T] | 1.9 |
| HVDPEEVWSPCSARFITDFLDNGY [P7V] | 2.56 |
| HVDPEEWWSPCSARFITDFLDNGY [P7W] | 2.54 |
| HVDPEEYWSPCSARFITDFLDNGY [P7Y] | 2.79 |
| HVDPEEPASPCSARFITDFLDNGY [W8A] | 3.47 |
| HVDPEEPCSPCSARFITDFLDNGY [W8C] | 3.39 |
| HVDPEEPDSPCSARFITDFLDNGY [W8D] | 3.66 |
| HVDPEEPESPCSARFITDFLDNGY [W8E] | 3.92 |
| HVDPEEPFSPCSARFITDFLDNGY [W8F] | 2.29 |
| HVDPEEPGSPCSARFITDFLDNGY [W8G] | 3.2 |
| HVDPEEPHSPCSARFITDFLDNGY [W8H] | 3.44 |
| HVDPEEPISPCSARFITDFLDNGY [W8I] | 3.34 |
| HVDPEEPKSPCSARFITDFLDNGY [W8K] | 3.48 |
| HVDPEEPLSPCSARFITDFLDNGY [W8L] | 3.24 |
| HVDPEEPMSPCSARFITDFLDNGY [W8M] | 2.82 |
| HVDPEEPNSPCSARFITDFLDNGY [W8N] | 2.95 |
| HVDPEEPPSPCSARFITDFLDNGY [W8P] | 3.49 |
| HVDPEEPQSPCSARFITDFLDNGY [W8Q] | 3.37 |

| Variant | protein stability index |
| --- | --- |
| HVDPEEPRSPCSARFITDFLDNGY [W8R] | 3.36 |
| HVDPEEPSSPCSARFITDFLDNGY [W8S] | 3.27 |
| HVDPEEPTSPCSARFITDFLDNGY [W8T] | 3.54 |
| HVDPEEPVSPCSARFITDFLDNGY [W8V] | 3.5 |
| HVDPEEPYSPCSARFITDFLDNGY [W8Y] | 2.89 |
| HVDPEEPWAPCSARFITDFLDNGY [S9A] | 2.05 |
| HVDPEEPWCPCSARFITDFLDNGY [S9C] | 2.08 |
| HVDPEEPWDPCSARFITDFLDNGY [S9D] | 2.79 |
| HVDPEEPWEPCSARFITDFLDNGY [S9E] | 3.19 |
| HVDPEEPWFPCSARFITDFLDNGY [S9F] | 1.93 |
| HVDPEEPWGPCSARFITDFLDNGY [S9G] | 2.24 |
| HVDPEEPWHPCSARFITDFLDNGY [S9H] | 2.17 |
| HVDPEEPWIPCSARFITDFLDNGY [S9I] | 2.29 |
| HVDPEEPWKPCSARFITDFLDNGY [S9K] | 1.97 |
| HVDPEEPWLPCSARFITDFLDNGY [S9L] | 1.67 |
| HVDPEEPWMPCSARFITDFLDNGY [S9M] | 1.77 |
| HVDPEEPWNPCSARFITDFLDNGY [S9N] | 1.67 |
| HVDPEEPWPPCSARFITDFLDNGY [S9P] | 2.32 |
| HVDPEEPWQPCSARFITDFLDNGY [S9Q] | 1.62 |
| HVDPEEPWRPCSARFITDFLDNGY [S9R] | 1.93 |
| HVDPEEPWTPCSARFITDFLDNGY [S9T] | 1.79 |
| HVDPEEPWVPCSARFITDFLDNGY [S9V] | 1.66 |
| HVDPEEPWWPCSARFITDFLDNGY [S9W] | 1.75 |
| HVDPEEPWYPCSARFITDFLDNGY [S9Y] | 1.85 |

| Variant | protein stability index |
| --- | --- |
| HVDPEEPWSACSARFITDFLDNGY [P10A] | 1.75 |
| HVDPEEPWSCCSARFITDFLDNGY [P10C] | 1.5 |
| HVDPEEPWSDCSARFITDFLDNGY [P10D] | 2.22 |
| HVDPEEPWSECSARFITDFLDNGY [P10E] | 2.48 |
| HVDPEEPWSFCSARFITDFLDNGY [P10F] | 1.92 |
| HVDPEEPWSGCSARFITDFLDNGY [P10G] | 1.88 |
| HVDPEEPWSHCSARFITDFLDNGY [P10H] | 1.81 |
| HVDPEEPWSICSARFITDFLDNGY [P10I] | 2.1 |
| HVDPEEPWSKCSARFITDFLDNGY [P10K] | 2.21 |
| HVDPEEPWSLCSARFITDFLDNGY [P10L] | 1.72 |
| HVDPEEPWSMCSARFITDFLDNGY [P10M] | 2.14 |
| HVDPEEPWSNCSARFITDFLDNGY [P10N] | 1.99 |
| HVDPEEPWSQCSARFITDFLDNGY [P10Q] | 2.1 |
| HVDPEEPWSRCSARFITDFLDNGY [P10R] | 1.83 |
| HVDPEEPWSSCSARFITDFLDNGY [P10S] | 2.49 |
| HVDPEEPWSTCSARFITDFLDNGY [P10T] | 1.92 |
| HVDPEEPWSVCSARFITDFLDNGY [P10V] | 1.74 |
| HVDPEEPWSWCSARFITDFLDNGY [P10W] | 2.08 |
| HVDPEEPWSYCSARFITDFLDNGY [P10Y] | 1.79 |
| HVDPEEPWSPASARFITDFLDNGY [C11A] | 2.41 |
| HVDPEEPWSPDSARFITDFLDNGY [C11D] | 2.05 |
| HVDPEEPWSPESARFITDFLDNGY [C11E] | 2 |
| HVDPEEPWSPFSARFITDFLDNGY [C11F] | 2.1 |
| HVDPEEPWSPGSARFITDFLDNGY [C11G] | 2.05 |

| Variant | protein stability index |
| --- | --- |
| HVDPEEPWSPHSARFITDFLDNGY [C11H] | 2.06 |
| HVDPEEPWSPISARFITDFLDNGY [C11I] | 1.79 |
| HVDPEEPWSPKSARFITDFLDNGY [C11K] | 2.21 |
| HVDPEEPWSPLSARFITDFLDNGY [C11L] | 1.69 |
| HVDPEEPWSPMSARFITDFLDNGY [C11M] | 1.6 |
| HVDPEEPWSPNSARFITDFLDNGY [C11N] | 1.9 |
| HVDPEEPWSPPSARFITDFLDNGY [C11P] | 2 |
| HVDPEEPWSPQSARFITDFLDNGY [C11Q] | 2.18 |
| HVDPEEPWSPRSARFITDFLDNGY [C11R] | 1.7 |
| HVDPEEPWSPSSARFITDFLDNGY [C11S] | 2.19 |
| HVDPEEPWSPTSARFITDFLDNGY [C11T] | 2.15 |
| HVDPEEPWSPVSARFITDFLDNGY [C11V] | 1.82 |
| HVDPEEPWSPWSARFITDFLDNGY [C11W] | 1.86 |
| HVDPEEPWSPYSARFITDFLDNGY [C11Y] | 3.06 |
| HVDPEEPWSPCAARFITDFLDNGY [S12A] | 1.68 |
| HVDPEEPWSPCCARFITDFLDNGY [S12C] | 1.8 |
| HVDPEEPWSPCDARFITDFLDNGY [S12D] | 2.39 |
| HVDPEEPWSPCEARFITDFLDNGY [S12E] | 1.88 |
| HVDPEEPWSPCFARFITDFLDNGY [S12F] | 1.86 |
| HVDPEEPWSPCGARFITDFLDNGY [S12G] | 1.61 |
| HVDPEEPWSPCHARFITDFLDNGY [S12H] | 2.31 |
| HVDPEEPWSPCIARFITDFLDNGY [S12I] | 2.16 |
